Protein stability index data for 94 variants are collected here from the supplement of paper PMC10567573.

The labels stand for the following.
B1: ZNF649 (parent)
chain: LVAHQRYHTGKTPFVCPECGQPCS
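Further: lentivirally expressed fusions sorted by FACS into six bins by GFP to DsRed ratio, PSI derived from sequencing read proportions per bin multiplied by bin number.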

The data set covers variants of B1. Nature of the data set: protein stability index of a GFP-peptide fusion (GPS, HEK-293T) (PSI 1-6); higher = more stable. To be noted: c terminus: a fixed tail appended.
Consider LVAHQRYSTGKTPFVCPECGQPCS [H8S], for which the protein stability index is 2.93.

Regarding LVAHQRYGTGKTPFVCPECGQPCS [H8G], the protein stability index came to 2.52.

With LVAHQRYMTGKTPFVCPECGQPCS [H8M], the protein stability index was 2.75.

As for LVAHQRYWTGKTPFVCPECGQPCS [H8W], the protein stability index was 2.57.

Turning to LVAHQRYFTGKTPFVCPECGQPCS [H8F], the protein stability index came out at 2.49.

In the case of LVAHQRYPTGKTPFVCPECGQPCS [H8P], the protein stability index was 3.67.

For LVAHQRYVTGKTPFVCPECGQPCS [H8V], the protein stability index is 3.77.

For the variant LVAHQRYTTGKTPFVCPECGQPCS [H8T], the protein stability index came to 3.26.

Take LVAHQRYLTGKTPFVCPECGQPCS [H8L]: the protein stability index worked out at 2.93.

Consider LVAHQRYQTGKTPFVCPECGQPCS [H8Q], for which the protein stability index was 3.59.

As for LVAHQRYKTGKTPFVCPECGQPCS [H8K], the protein stability index turned out to be 2.57.

On to LVAHQRYETGKTPFVCPECGQPCS [H8E], for which the protein stability index was found to be 3.13.

In the case of LVAHQRYCTGKTPFVCPECGQPCS [H8C], the protein stability index was found to be 3.05.

With LVAHQRYYTGKTPFVCPECGQPCS [H8Y], the protein stability index was 2.69.

Take LVAHQRYNTGKTPFVCPECGQPCS [H8N]: the protein stability index is 3.18.

Consider LVAHQRYATGKTPFVCPECGQPCS [H8A], for which the protein stability index turned out to be 3.1.

Take LVAHQRYDTGKTPFVCPECGQPCS [H8D]: the protein stability index worked out at 3.54.

As to LVAHQRYRTGKTPFVCPECGQPCS [H8R], the protein stability index amounted to 2.53.

With LVAHQRYHTGKTPGVCPECGQPCS [F14G], the protein stability index turned out to be 4.1.

Consider LVAHQRYHTGKTPRVCPECGQPCS [F14R], for which the protein stability index was found to be 3.38.

LVAHQRYHTGKTPIVCPECGQPCS [F14I]: the protein stability index was 3.61.

As for LVAHQRYHTGKTPQVCPECGQPCS [F14Q], the protein stability index was 3.38.

Regarding LVAHQRYHTGKTPKVCPECGQPCS [F14K], the protein stability index came out at 3.28.

On to LVAHQRYHTGKTPPVCPECGQPCS [F14P], for which the protein stability index was found to be 3.58.

As to LVAHQRYHTGKTPAVCPECGQPCS [F14A], the protein stability index was found to be 3.94.

For LVAHQRYHTGKTPTVCPECGQPCS [F14T], the protein stability index was determined as 4.22.

Regarding LVAHQRYHTGKTPDVCPECGQPCS [F14D], the protein stability index was found to be 4.18.

On to LVAHQRYHTGKTPNVCPECGQPCS [F14N], for which the protein stability index was 3.7.

Consider LVAHQRYHTGKTPMVCPECGQPCS [F14M], for which the protein stability index amounted to 3.25.

With LVAHQRYHTGKTPLVCPECGQPCS [F14L], the protein stability index stood at 3.7.

In the case of LVAHQRYHTGKTPHVCPECGQPCS [F14H], the protein stability index came out at 3.02.

Regarding LVAHQRYHTGKTPYVCPECGQPCS [F14Y], the protein stability index was determined as 3.

For LVAHQRYHTGKTPEVCPECGQPCS [F14E], the protein stability index was determined as 4.44.

In the case of LVAHQRYHTGKTPWVCPECGQPCS [F14W], the protein stability index was 3.1.

For the variant LVAHQRYHTGKTPVVCPECGQPCS [F14V], the protein stability index came to 3.81.

On to LVAHQRYHTGKTPSVCPECGQPCS [F14S], for which the protein stability index is 3.93.

For LVAHQRYHTGKTPCVCPECGQPCS [F14C], the protein stability index worked out at 3.65.

Regarding LVAHQRYHTGKTCFVCPECGQPCS [P13C], the protein stability index came to 2.71.

For the variant LVAHQRYHTGKTWFVCPECGQPCS [P13W], the protein stability index amounted to 3.63.

Take LVAHQRYHTGKTAFVCPECGQPCS [P13A]: the protein stability index is 2.94.

Take LVAHQRYHTGKTKFVCPECGQPCS [P13K]: the protein stability index was found to be 3.36.

LVAHQRYHTGKTFFVCPECGQPCS [P13F]: the protein stability index was 2.8.

Regarding LVAHQRYHTGKTIFVCPECGQPCS [P13I], the protein stability index turned out to be 2.76.

For the variant LVAHQRYHTGKTSFVCPECGQPCS [P13S], the protein stability index was 3.65.

Take LVAHQRYHTGKTVFVCPECGQPCS [P13V]: the protein stability index is 3.32.

Take LVAHQRYHTGKTEFVCPECGQPCS [P13E]: the protein stability index was determined as 3.7.

Regarding LVAHQRYHTGKTHFVCPECGQPCS [P13H], the protein stability index was 3.36.

LVAHQRYHTGKTGFVCPECGQPCS [P13G]: the protein stability index is 2.94.

Regarding LVAHQRYHTGKTDFVCPECGQPCS [P13D], the protein stability index is 3.46.

For the variant LVAHQRYHTGKTNFVCPECGQPCS [P13N], the protein stability index stood at 3.64.

As for LVAHQRYHTGKTMFVCPECGQPCS [P13M], the protein stability index was determined as 3.27.

For LVAHQRYHTGKTLFVCPECGQPCS [P13L], the protein stability index stood at 2.62.

Regarding LVAHQRYHTGKTRFVCPECGQPCS [P13R], the protein stability index came to 3.31.

For the variant LVAHQRYHTGKTQFVCPECGQPCS [P13Q], the protein stability index came out at 3.32.

For the variant LVAHQRYHTGKTYFVCPECGQPCS [P13Y], the protein stability index amounted to 3.26.

In the case of LVAHQRYHTGKTTFVCPECGQPCS [P13T], the protein stability index stood at 4.15.

For LVAHQRYHTGKYPFVCPECGQPCS [T12Y], the protein stability index came to 3.02.

As for LVAHQRYHTGKCPFVCPECGQPCS [T12C], the protein stability index was determined as 3.01.

LVAHQRYHTGKPPFVCPECGQPCS [T12P]: the protein stability index worked out at 3.2.

LVAHQRYHTGKGPFVCPECGQPCS [T12G]: the protein stability index was found to be 3.04.

For the variant LVAHQRYHTGKDPFVCPECGQPCS [T12D], the protein stability index worked out at 3.06.

Turning to LVAHQRYHTGKLPFVCPECGQPCS [T12L], the protein stability index was found to be 2.96.

Regarding LVAHQRYHTGKFPFVCPECGQPCS [T12F], the protein stability index is 2.77.

Take LVAHQRYHTGKNPFVCPECGQPCS [T12N]: the protein stability index worked out at 3.39.

Consider LVAHQRYHTGKEPFVCPECGQPCS [T12E], for which the protein stability index came to 3.86.

On to LVAHQRYHTGKWPFVCPECGQPCS [T12W], for which the protein stability index was determined as 2.96.

On to LVAHQRYHTGKVPFVCPECGQPCS [T12V], for which the protein stability index turned out to be 3.13.

Regarding LVAHQRYHTGKIPFVCPECGQPCS [T12I], the protein stability index was 3.7.

Turning to LVAHQRYHTGKSPFVCPECGQPCS [T12S], the protein stability index is 3.5.

For the variant LVAHQRYHTGKQPFVCPECGQPCS [T12Q], the protein stability index is 2.68.

As for LVAHQRYHTGKKPFVCPECGQPCS [T12K], the protein stability index came to 3.15.

Consider LVAHQRYHTGKMPFVCPECGQPCS [T12M], for which the protein stability index amounted to 3.12.

As to LVAHQRYHTGKRPFVCPECGQPCS [T12R], the protein stability index was 2.91.

With LVAHQRYHTGKAPFVCPECGQPCS [T12A], the protein stability index was found to be 3.49.

Take LVAHQRYHTGKHPFVCPECGQPCS [T12H]: the protein stability index came out at 2.56.

Regarding LVAHQRLHTGKTPFVCPECGQPCS [Y7L], the protein stability index stood at 2.93.

Consider LVAHQRVHTGKTPFVCPECGQPCS [Y7V], for which the protein stability index is 3.44.

Regarding LVAHQRTHTGKTPFVCPECGQPCS [Y7T], the protein stability index turned out to be 3.28.

Turning to LVAHQRPHTGKTPFVCPECGQPCS [Y7P], the protein stability index came out at 4.04.

On to LVAHQRQHTGKTPFVCPECGQPCS [Y7Q], for which the protein stability index was 4.14.

As for LVAHQRFHTGKTPFVCPECGQPCS [Y7F], the protein stability index worked out at 3.2.

With LVAHQRMHTGKTPFVCPECGQPCS [Y7M], the protein stability index came to 3.67.

For LVAHQRCHTGKTPFVCPECGQPCS [Y7C], the protein stability index is 2.59.

As to LVAHQREHTGKTPFVCPECGQPCS [Y7E], the protein stability index was 4.45.

Consider LVAHQRKHTGKTPFVCPECGQPCS [Y7K], for which the protein stability index worked out at 3.31.

With LVAHQRHHTGKTPFVCPECGQPCS [Y7H], the protein stability index amounted to 3.56.

As to LVAHQRIHTGKTPFVCPECGQPCS [Y7I], the protein stability index worked out at 3.21.

As for LVAHQRDHTGKTPFVCPECGQPCS [Y7D], the protein stability index stood at 4.17.

Take LVAHQRGHTGKTPFVCPECGQPCS [Y7G]: the protein stability index stood at 3.68.

For the variant LVAHQRNHTGKTPFVCPECGQPCS [Y7N], the protein stability index was determined as 3.73.

On to LVAHQRSHTGKTPFVCPECGQPCS [Y7S], for which the protein stability index turned out to be 3.18.

On to LVAHQRRHTGKTPFVCPECGQPCS [Y7R], for which the protein stability index was determined as 2.75.

For LVAHQRAHTGKTPFVCPECGQPCS [Y7A], the protein stability index came out at 3.83.

Turning to LVAHQRWHTGKTPFVCPECGQPCS [Y7W], the protein stability index was 2.38.
